Measured values taken from the supplement of paper PMC10567573.

B1: ATE1 (parent)
chain: YGSFHQQYWLDGKIIAVGVIDILP

Variants of: B1
Test: protein stability index of a GFP-peptide fusion (GPS, HEK-293T) (PSI 1-6); higher = more stable
Conditions: c terminus: a fixed tail appended
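Further: lentivirally expressed fusions sorted by FACS into six bins by GFP to DsRed ratio, PSI derived from sequencing read proportions per bin multiplied by bin number.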

Compared with YGSFHQQYWLDGWIIAVGVIDILP [K13W], YGSFHQQYWLDGKIIAVGVIDILI [P24I] is higher in protein stability index: 1.94 for the first, 2.73 for the second.

Compared with YGSFHQQYWLDGKIIAVGVIDILL [P24L], YGSFHQQYWLDGKIIAVGVIDILK [P24K] is lower in protein stability index: 4.25 for the first, 1.04 for the second.

Going from YGSFHQQYWLDGKIIAVGVIDILW [P24W] to YGSFHQQYWLDGKIIAVGVIDILQ [P24Q], the protein stability index falls from 3.2 to 2.51.

Compared with YGSFHQQYWLDGKIIAVGVIDILV [P24V], YGSFHQQYWLDGKIIAVGVIDILM [P24M] is lower in protein stability index: 3.01 for the first, 2.18 for the second.

Going from YGSFHQQYWLDGKIIAVGVIDILA [P24A] to YGSFHQQYWLDGKIIAVGVIDILS [P24S], the protein stability index falls from 2.06 to 1.79.

First: YGSFHQQYWLDGKIIAVGVIDILF [P24F]
Second: YGSFHQQYWLDGKIIAVGVIDILG [P24G]
The protein stability index of the first is lower: 1.69 for the first, 3.18 for the second.

Going from YGSFHQQYWLDGKIIAVGVYDILP [I20Y] to YGSFHQQYWLDGKIIAVGVEDILP [I20E], the protein stability index falls from 1.81 to 1.65.

First: YGSFHQQYWLDGKIIAVGVWDILP [I20W]
Second: YGSFHQQYWLDGKIIAVGVCDILP [I20C]
The protein stability index of the first is higher: 1.38 for the first, 1.22 for the second.

Going from YGSFHQQYWLDGKIIAVGVDDILP [I20D] to YGSFHQQYWLDGKIIAVGVMDILP [I20M], the protein stability index rises from 2.41 to 2.59.

First: YGSFHQQYWLDGKIIAVGVRDILP [I20R]
Second: YGSFHQQYWLDGKIIAVGVADILP [I20A]
The protein stability index of the first is lower: 2.48 for the first, 3.4 for the second.

Going from YGSFHQQYWLDGKIIAVGVLDILP [I20L] to YGSFHQQYWLDGKIIAVGVPDILP [I20P], the protein stability index falls from 3.46 to 2.53.

First: YGSFHQQYWLDGKIIAVGVFDILP [I20F]
Second: YGSFHQQYWLDGKIIAVGVSDILP [I20S]
The protein stability index of the first is higher: 4.08 for the first, 2.38 for the second.

Going from YGSFHQQYWLDGKIIAVGVIDDLP [I22D] to YGSFHQQYWLDGKIIAVGVIDMLP [I22M], the protein stability index rises from 2.81 to 3.15.

Going from YGSFHQQYWLDGKIIAVGVIDYLP [I22Y] to YGSFHQQYWLDGKIIAVGVIDPLP [I22P], the protein stability index rises from 2.23 to 3.32.

Going from YGSFHQQYWLDGKIIAVGVIDKLP [I22K] to YGSFHQQYWLDGKIIAVGVIDTLP [I22T], the protein stability index rises from 1.43 to 1.74.

Compared with YGSFHQQYWLDGKIIAVGVIDHLP [I22H], YGSFHQQYWLDGKIIAVGVIDSLP [I22S] is higher in protein stability index: 2.9 for the first, 3.81 for the second.

Compared with YGSFHQQYWLDGKIIAVGVIDQLP [I22Q], YGSFHQQYWLDGKIIAVGVIDVLP [I22V] is lower in protein stability index: 2.42 for the first, 2.14 for the second.

First: YGSFHQQYWLDGKIIAVGVIDALP [I22A]
Second: YGSFHQQYWLDGKIIAVGVIDWLP [I22W]
The protein stability index of the first is higher: 3.85 for the first, 2.77 for the second.

Going from YGSFHQQYWLDGKIIAVGVIDFLP [I22F] to YGSFHQQYWLDGKIIAVGVIDRLP [I22R], the protein stability index falls from 2.93 to 2.18.

First: YGSFHQQYWLDGKIIAVGVIDELP [I22E]
Second: YGSFHQQYWLDGKIIAVLVIDILP [G18L]
The protein stability index of the first is higher: 3.75 for the first, 1.9 for the second.

First: YGSFHQQYWLDGKIIAVEVIDILP [G18E]
Second: YGSFHQQYWLDGKIIAVKVIDILP [G18K]
The protein stability index of the first is lower: 2.28 for the first, 3.6 for the second.

Compared with YGSFHQQYWLDGKIIAVYVIDILP [G18Y], YGSFHQQYWLDGKIIAVTVIDILP [G18T] is higher in protein stability index: 1.96 for the first, 4.01 for the second.

First: YGSFHQQYWLDGKIIAVQVIDILP [G18Q]
Second: YGSFHQQYWLDGKIIAVPVIDILP [G18P]
The protein stability index of the first is higher: 3.22 for the first, 2.39 for the second.

Going from YGSFHQQYWLDGKIIAVNVIDILP [G18N] to YGSFHQQYWLDGKIIAVIVIDILP [G18I], the protein stability index rises from 2.31 to 3.47.

First: YGSFHQQYWLDGKIIAVAVIDILP [G18A]
Second: YGSFHQQYWLDGKIIAVWVIDILP [G18W]
The protein stability index of the first is higher: 3.13 for the first, 2.81 for the second.

First: YGSFHQQYWLDGKIIAVFVIDILP [G18F]
Second: YGSFHQQYWLDGKIIAVRVIDILP [G18R]
The protein stability index of the first is lower: 2.53 for the first, 3.77 for the second.

Going from YGSFHQQYWLDGKIIAVCVIDILP [G18C] to YGSFHQQYWLDGKIIAVSVIDILP [G18S], the protein stability index falls from 4.11 to 3.06.

First: YGSFHQQYWLDGKPIAVGVIDILP [I14P]
Second: YGSFHQQYWLDGKMIAVGVIDILP [I14M]
The protein stability index of the first is lower: 2.95 for the first, 4.33 for the second.

Going from YGSFHQQYWLDGKSIAVGVIDILP [I14S] to YGSFHQQYWLDGKYIAVGVIDILP [I14Y], the protein stability index falls from 1.85 to 1.49.

First: YGSFHQQYWLDGKTIAVGVIDILP [I14T]
Second: YGSFHQQYWLDGKNIAVGVIDILP [I14N]
The protein stability index of the first is lower: 2.75 for the first, 4.29 for the second.

Going from YGSFHQQYWLDGKEIAVGVIDILP [I14E] to YGSFHQQYWLDGKCIAVGVIDILP [I14C], the protein stability index rises from 2.66 to 2.81.

First: YGSFHQQYWLDGKWIAVGVIDILP [I14W]
Second: YGSFHQQYWLDGKGIAVGVIDILP [I14G]
The protein stability index of the first is higher: 2.62 for the first, 2.26 for the second.

Compared with YGSFHQQYWLDGKKIAVGVIDILP [I14K], YGSFHQQYWLDGKQIAVGVIDILP [I14Q] is higher in protein stability index: 2.41 for the first, 2.72 for the second.

First: YGSFHQQYWLDGKAIAVGVIDILP [I14A]
Second: YGSFHQQYWLDGKIIAVGEIDILP [V19E]
The protein stability index of the first is higher: 3.24 for the first, 1.71 for the second.

First: YGSFHQQYWLDGKIIAVGIIDILP [V19I]
Second: YGSFHQQYWLDGKIIAVGWIDILP [V19W]
The protein stability index of the first is higher: 2.64 for the first, 2.06 for the second.

Going from YGSFHQQYWLDGKIIAVGLIDILP [V19L] to YGSFHQQYWLDGKIIAVGMIDILP [V19M], the protein stability index rises from 2.41 to 2.91.

Compared with YGSFHQQYWLDGKIIAVGKIDILP [V19K], YGSFHQQYWLDGKIIAVGQIDILP [V19Q] is higher in protein stability index: 1.77 for the first, 2.97 for the second.

Compared with YGSFHQQYWLDGKIIAVGRIDILP [V19R], YGSFHQQYWLDGKIIAVGDIDILP [V19D] is higher in protein stability index: 2.92 for the first, 3.87 for the second.

Going from YGSFHQQYWLDGKIIAVGSIDILP [V19S] to YGSFHQQYWLDGKIIAVGTIDILP [V19T], the protein stability index falls from 2.97 to 2.49.

First: YGSFHQQYWLDGKIIAVGFIDILP [V19F]
Second: YGSFHQQYWLDGKIIAVGYIDILP [V19Y]
The protein stability index of the first is higher: 3.06 for the first, 2.91 for the second.

First: YGSFHQQYWLDGKIIAVGCIDILP [V19C]
Second: YGSFHQQYWLDGKIIAVGAIDILP [V19A]
The protein stability index of the first is lower: 2.56 for the first, 2.67 for the second.

Going from YGSFHQQYWLDGKIIAVGPIDILP [V19P] to YGSFHQQYWLDGKIKAVGVIDILP [I15K], the protein stability index falls from 3.09 to 1.79.

Going from YGSFHQQYWLDGKIEAVGVIDILP [I15E] to YGSFHQQYWLDGKIDAVGVIDILP [I15D], the protein stability index falls from 3.12 to 2.53.

First: YGSFHQQYWLDGKIMAVGVIDILP [I15M]
Second: YGSFHQQYWLDGKIAAVGVIDILP [I15A]
The protein stability index of the first is lower: 2.51 for the first, 2.57 for the second.

Going from YGSFHQQYWLDGKIHAVGVIDILP [I15H] to YGSFHQQYWLDGKILAVGVIDILP [I15L], the protein stability index falls from 3.57 to 2.75.

First: YGSFHQQYWLDGKISAVGVIDILP [I15S]
Second: YGSFHQQYWLDGKITAVGVIDILP [I15T]
The protein stability index of the first is lower: 2.5 for the first, 3.23 for the second.

Compared with YGSFHQQYWLDGKIFAVGVIDILP [I15F], YGSFHQQYWLDGKIRAVGVIDILP [I15R] is lower in protein stability index: 2.83 for the first, 1.91 for the second.
